How the values were obtained:
[1] = Conversion of syringic acid, sinapic acid and syringol by crude PPOs, absorbance at 400 nm; type: biochemical; settings: 4 mM substrate, crude PPO 8.2 μg/mL, pH 6.0 or 7.0, 50 μM CuSO4, room temperature, 2, 22 and 118 h
Description: Syringic acid, sinapic acid and syringol (4 mM) were incubated with crude PPO2, 4, 6 and 7 from Example 5 in 100 mM BisTris buffer pH 6.0 or 7.0 with 50 μM CuSO4. Crude PPOs were dosed on target protein with a final concentration of 8.2 μg/mL. Substrate blanks prepared without the addition of enzyme and enzyme blanks without the addition of substrate were included. Incubations were performed in microtiterplates with a total reaction volume of 150 μL at room temperature for approximately 120 h. After 2, 22 and 118 h absorbance at 400 nm was measured.

[2] = Catechol oxidase activity assay: initial rate of 3-methoxycatechol oxidation at 400 nm (pH, copper and temperature optima); type: biochemical
Description: PPO activity was determined by measuring the initial rate of 3-methoxycatechol oxidation at 400 nm (extinction coefficient used: ε 1200 M^−1cm^−1). One unit of activity is defined as the amount of PPO activity that oxidizes 1 μmol of 3-methoxycatechol to quinone per minute. Substrate was used at a concentration of 4 mM.
The pH optima were determined by measuring the initial rate of 3-methoxycatechol oxidation with varying pHs, at room temperature and using a CuSO4 concentration of 10 μM. The pH was varied in the range of pH3-9 using Carmody buffers. Enzyme loading was applied resulting in A400 absorbance values in the range of 0.1-1. Protein concentration was determined using the BCA method.
Optimal copper concentrations for the PPOs were determined at the optimal pH by varying the concentration of CuSO4 in the range of 1-1000 μM. In these experiments the pH was controlled using 50 mM Bis-Tris buffer pH 7.0.
Temperature optima were determined by measuring A400 absorbance after 1 h incubation at temperatures in the range of 20 to 70° C. In these experiments the pH was controlled using 50 mM Bis-Tris buffer pH 7.0. Copper concentrations of (20 or 50 μM) were used to prevent chemical oxidation as background activity at higher copper concentrations.

[3] = target: T1, RAC incubated with LPMO9B (Thermothelomyces thermophilus, UniProt G2QCJ3); assay: RAC hydrolysis assay with LPMO9B and PPO2, PPO7 or AbTyr in the presence of sinapic acid or syringic acid; type: biochemical, Myceliophthora thermophila; settings: LPMO9B 5 μg/ml alone = 100%, or with added enzyme, pH 5.0, 50° C., 24 h
T1 construct: made in house; host or cells: Myceliophthora thermophila C1 strain W1L#100.1Δpyr5ΔAlp1
T1 sequence (G2QCJ3 19-323): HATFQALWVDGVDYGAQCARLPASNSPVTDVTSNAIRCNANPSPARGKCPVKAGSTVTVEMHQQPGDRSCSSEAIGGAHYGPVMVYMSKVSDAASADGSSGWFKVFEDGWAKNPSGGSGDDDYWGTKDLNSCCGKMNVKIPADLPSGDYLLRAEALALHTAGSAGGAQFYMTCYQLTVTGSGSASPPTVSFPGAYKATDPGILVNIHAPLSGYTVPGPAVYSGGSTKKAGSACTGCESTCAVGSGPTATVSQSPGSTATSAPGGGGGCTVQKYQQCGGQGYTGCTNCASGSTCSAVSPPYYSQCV
Description: Reducing agents sinapic acid and syringic acid were obtained from Sigma-Aldrich (St. Louis, Mo., USA). RAC was prepared from Avicel by swelling it in phosphoric acid, (Zhang Y H P, Cui J, Lynd L R, & Kuang L R (2006) A transition from cellulose swelling to cellulose dissolution by o-phosphoric acid: Evidence from enzymatic hydrolysis and supramolecular structure. Biomacromolecules 7(2):644-648.). RAC was dissolved in 50 mM phospate buffer (pH 5.0) to a final concentration of 1.5 mg/ml. Copper chloride was added to a final concentration of 2.5 μM and dimethoxy containg reducing agent sinapic acid or syringic acid to a final concentration of 2 mM. LPMO9B (5 μg/ml) with or without PPO2 (5 μg/ml), PPO7 (5 μg/ml) or AbTyr (7.5 U/ml) were added and incubated for 24 h at 50° C. in a head-over-tail rotator in portions of 1 mL total volume (Stuart® rotator, Bibby Scientific LTD, Stone, UK) at 20 rpm. Products were analysed by HPAEC and MALDI-TOF MS as described previously. (Frommhagen M, Sforza S, Westphal A H, Visser J, Hinz S W, Koetsier M J et al. Discovery of the combined oxidative cleavage of plant xylan and cellulose by a new fungal polysaccharide monooxygenase. Biotechnology for Biofuels. 2015; 8:101. doi:10.1186/s13068-015-0284-1). The Activity denoted as “Activity*” represents total release of non-oxidized and C1-oxidized gluco-oligosaccharides from RAC incubated with LPMO9B in the presence of sinapic or syringic acid as a reducing agent and with addition of either AbTyr, PPO7 or PPO2. […] Standard deviations were less than 2%.

[4] = Methanol formation by GC, lignin; type: biochemical; settings: enzyme 0.5 g/L, 25° C., approx. 48 h
Description: Model compounds syringic acid, syringol, 1,3-dimethoxybenzene and 3,5-dimethoxybenzoic acid (12 mM) were incubated with PPO7 from Example 2 (2% loading (w/w)) in 50 mM BisTris buffer pH 6.5 with 10 μM CuSO4. For syringic acid and syringol PPO2 from Example 2 was included as a control. Lignin and lignin-derived compounds (10 g/L) were incubated with PPO7 from Example 2 (0.5 g/L, 5% loading (w/w)). PPO2 from Example 2 was included as a control and incubated using the same conditions. Blanks prepared without the addition of enzyme were included. Incubations were performed in GC headspace vials with a total of 1 mL reaction volume at 25° C. for approximately 48 h while shaking. The reaction was stopped by adding 28 μL 1M HCl to lower the pH to ˜3. Samples were analyzed by GC for methanol formation. A calibration range of 0.23 to 11.5 mM methanol in buffer with HCl was included.

B1: PPO7: Myceliophthora thermophila C1 polyphenoloxidase with demethylating activity, mature form SEQ ID NO: 45 (protein, listed as Myceliophthora thermophila)
chain: NPMHKRWKPNAPRNPDFPLDEVDKLEESIMPNVEAWMSKRPAKYSNCTLENAGIRREWSDLSVDERKEYISAVLCLQSKPSKIPEGEVPGALSRFDDFVATHMTMAGQLHSPTNLFAAHRYFIHAYEKALREECGYKGYQPYMNYDRYADDPLNTPLFDGSDSSMSGNGGPYNYSGIPQPFPKPYNLIPPAGGGGCVTEGPFRDMVVSLGPKGGLFHDIPRNPRADGLGSNPRCLRRDVNKYSARGARANYTYSAIMDNPDIDSFYNRYMGMPQLKGDPYPWGLHSSGHYLIGGDPGGDFYCSPGDPLFYFHHGMLDRVWWIWQMQDPENRVQAVPGTNTMPMPPLMAANLESEAAATTTHKRAVNVSDLVVDLGWTAPPVKLVDLNEQLGGLGGELCYIYV
- Conversion of substrates (absorbance at 400 nm) [1]: able to convert syringic acid, sinapic acid and syringol
- pHopt ([2]; 3-methoxycatechol oxidation, room temperature, 10 μM CuSO4, Carmody buffers pH3-9): 7.0
- T range ([2]; >50% of maximum activity): 20-55 °C
- pH range ([2]; >50% of maximum activity): 6.5-8.0
- [CuSO4] range ([2]; >90% of maximum activity): 100 to 1000 µM
- Topt ([2]; A400 after 1 h incubation, 20 to 70° C., 50 mM Bis-Tris pH 7.0, 20 or 50 μM copper): 40 °C
- [CuSO4]opt ([2]; at optimal pH, 50 mM Bis-Tris buffer pH 7.0, CuSO4 varied 1-1000 μM): 400 µM
- Activity: total release of non-oxidized and C1-oxidized gluco-oligosaccharides from RAC ([3]; reducing agent sinapic acid 2 mM): 195%
- Activity: total release of non-oxidized and C1-oxidized gluco-oligosaccharides from RAC ([3]; reducing agent syringic acid 2 mM): 142%
- methanol ([4]; Corn stover BioLignin 10 g/L, blank 0): 0.27 mM
- methanol ([4]; Wheat straw BioLignin 10 g/L, blank 0.10): 0.28 mM
